From IntAct's records for PubMed 12571249

B1: Syndecan-4 (Rattus norvegicus (Rat)), P34901 (parent)
chain: MAPVCLFAPLLLLLLGGFPVAPGESIRETEVIDPQDLLEGRYFSGALPDDEDAGGLEQDSDFELSGSGDLDDTEEPRTFPEVISPLVPLDNHIPENAQPGIRVPSEPKELEENEVIPKRVPSDVGDDDVSNKVSMSSTSQGSNIFERTEVLAALIVGGVVGILFAVFLILLLVYRMKKKDEGSYDLGKKPIYKKAPTNEFYA

Variants of: B1
Details: with kpca_human PRKCA

effect of a mutation on the interaction | Variant
disrupting interaction | Y192F
